The record followed here is paper PMC5121632.

Data set [1] has as its system CT-TALE (dAvrBs3 TALE without periodic non-RVD mutations at repeat positions 4 and 32). The experiment in a line: ITC. Particulars: ITC: 50 mM Tris-HCl pH 8.0, 200 mM NaCl, 1 mM DTT, 5% glycerol; 15 and 25 °C; 96 μM DNA injected into TALE; single-site model.
Data set [2] concerns VT-TALE (dAvrBs3 TALE with periodic non-RVD mutations at repeat positions 4 and 32). The experiment in a line: ITC. Particulars: ITC: 50 mM Tris-HCl pH 8.0, 200 mM NaCl, 1 mM DTT, 5% glycerol; 15 and 25 °C; 96 μM DNA injected into TALE; single-site model.

Several values for one entry are separate records, joined by “and”; a condition that tells them apart may be missing. Identical values can stand only once.

With “GGGTATACTCACACAATAGCTGGG (double strand) [EBEf]”, the Kd (as a rule, the equilibrium constant for the complex coming apart) was 0.139 µM and 0.346 µM in data set [1]; 0.131 µM and 0.326 µM in data set [2].
Consider “GGGTATACTCACTGGGTGTGGGGG (double strand) [EBEn]”, for which the Kd in data set [1] was 0.109 µM and 0.305 µM; in data set [2], 0.117 µM and 0.262 µM.
